Results taken from patent US20210403591A1 (OSSIANIX, published 2021).

Assays:
Test in all cases: FACS, transfected Expi293 cells
[1] = target: T1, mTfR-1 S255A on Expi293 cells (mouse, UniProt Q62351 1-763)
T1 construct: whole, on cells
Method: (§1) Transfected Expi293 cells were harvested and 2×10⁵ cells were transferred into V-bottom 96-well plate for staining. The cells were blocked in PBS containing 1% BSA (FACS buffer) for 10 min on ice, centrifuged to remove the buffer and 1 μl of 8D3-hFc formatted antibody, Clone C-hFc or Clone C variants 18 and 13 (Table 1), all at 1 mg/ml, was added to the wells. The cells were co-stained with mouse Tf-Alexa647 (Jackson ImmunoResearch). After 30 minutes on ice, the cells were washed and incubated with anti-hFc-PE (eBioscience) for 20 minutes on ice, washed again and resuspended in […] of FACS buffer containing 5 μl of propidium iodide (PI) to exclude dead cells from the analysis. The percentage of double-positive cells that stained with mTf and the tested antibody was determined on a CytoFlex cytometer (Beckman Coulter). The percentage of cells in the double positive quadrant (Q2) for WT mTfR-1 was used for normalization.

[2] = target: T2, mTfR-1 Q327A on Expi293 cells (mouse, UniProt Q62351 1-763)
T2 construct: whole, on cells
Method: as §1

[3] = target: T3, mTfR-1 Q193A on Expi293 cells (mouse, UniProt Q62351 1-763)
T3 construct: whole, on cells
Method: as §1

[4] = target: T4, mTfR-1 I378A on Expi293 cells (mouse, UniProt Q62351 1-763)
T4 construct: whole, on cells
Method: as §1

[5] = target: T5, mTfR-1 M202A on Expi293 cells (mouse, UniProt Q62351 1-763)
T5 construct: whole, on cells
Method: as §1

[6] = target: T6, mTfR-1 K380A on Expi293 cells (mouse, UniProt Q62351 1-763)
T6 construct: whole, on cells
Method: as §1

[7] = target: T7, mTfR-1 T228A on Expi293 cells (mouse, UniProt Q62351 1-763)
T7 construct: whole, on cells
Method: as §1

[8] = target: T8, mTfR-1 P325A on Expi293 cells (mouse, UniProt Q62351 1-763)
T8 construct: whole, on cells
Method: as §1

[9] = target: T9, mTfR-1 P324A on Expi293 cells (mouse, UniProt Q62351 1-763)
T9 construct: whole, on cells
Method: as §1

[10] = target: T10, mTfR-1 S329A on Expi293 cells (mouse, UniProt Q62351 1-763)
T10 construct: whole, on cells
Method: as §1

[11] = target: T11, mTfR-1 I279A on Expi293 cells (mouse, UniProt Q62351 1-763)
T11 construct: whole, on cells
Method: as §1

[12] = target: T12, mTfR-1 G199A on Expi293 cells (mouse, UniProt Q62351 1-763)
T12 construct: whole, on cells
Method: as §1

[13] = target: T13, mTfR-1 N253A on Expi293 cells (mouse, UniProt Q62351 1-763)
T13 construct: whole, on cells
Method: as §1

[14] = target: T14, mTfR-1 S328A on Expi293 cells (mouse, UniProt Q62351 1-763)
T14 construct: whole, on cells
Method: as §1

[15] = target: T15, mTfR-1 G330A on Expi293 cells (mouse, UniProt Q62351 1-763)
T15 construct: whole, on cells
Method: as §1

[16] = target: T16, mTfR-1 S197A on Expi293 cells (mouse, UniProt Q62351 1-763)
T16 construct: whole, on cells
Method: as §1

[17] = target: T17, mTfR-1 L383A on Expi293 cells (mouse, UniProt Q62351 1-763)
T17 construct: whole, on cells
Method: as §1

[18] = target: T18, mTfR-1 Q274A on Expi293 cells (mouse, UniProt Q62351 1-763)
T18 construct: whole, on cells
Method: as §1

[19] = target: T19, mTfR-1 P332A on Expi293 cells (mouse, UniProt Q62351 1-763)
T19 construct: whole, on cells
Method: as §1

[20] = target: T20, mTfR-1 S196A on Expi293 cells (mouse, UniProt Q62351 1-763)
T20 construct: whole, on cells
Method: as §1

[21] = target: T21, mTfR-1 V194A on Expi293 cells (mouse, UniProt Q62351 1-763)
T21 construct: whole, on cells
Method: as §1

[22] = target: T22, mTfR-1 S231A on Expi293 cells (mouse, UniProt Q62351 1-763)
T22 construct: whole, on cells
Method: as §1

[23] = target: T23, mTfR-1 S225A on Expi293 cells (mouse, UniProt Q62351 1-763)
T23 construct: whole, on cells
Method: as §1

[24] = target: T24, mTfR-1 K226A on Expi293 cells (mouse, UniProt Q62351 1-763)
T24 construct: whole, on cells
Method: as §1

[25] = target: T25, mTfR-1 P227A on Expi293 cells (mouse, UniProt Q62351 1-763)
T25 construct: whole, on cells
Method: as §1

[26] = target: T26, mTfR-1 I198A on Expi293 cells (mouse, UniProt Q62351 1-763)
T26 construct: whole, on cells
Method: as §1

[27] = target: T27, mTfR-1 K191A on Expi293 cells (mouse, UniProt Q62351 1-763)
T27 construct: whole, on cells
Method: as §1

[28] = target: T28, mTfR-1 E229A on Expi293 cells (mouse, UniProt Q62351 1-763)
T28 construct: whole, on cells
Method: as §1

[29] = target: T29, mTfR-1 V230A on Expi293 cells (mouse, UniProt Q62351 1-763)
T29 construct: whole, on cells
Method: as §1

T1 sequence (Q62351 whole entry S255A): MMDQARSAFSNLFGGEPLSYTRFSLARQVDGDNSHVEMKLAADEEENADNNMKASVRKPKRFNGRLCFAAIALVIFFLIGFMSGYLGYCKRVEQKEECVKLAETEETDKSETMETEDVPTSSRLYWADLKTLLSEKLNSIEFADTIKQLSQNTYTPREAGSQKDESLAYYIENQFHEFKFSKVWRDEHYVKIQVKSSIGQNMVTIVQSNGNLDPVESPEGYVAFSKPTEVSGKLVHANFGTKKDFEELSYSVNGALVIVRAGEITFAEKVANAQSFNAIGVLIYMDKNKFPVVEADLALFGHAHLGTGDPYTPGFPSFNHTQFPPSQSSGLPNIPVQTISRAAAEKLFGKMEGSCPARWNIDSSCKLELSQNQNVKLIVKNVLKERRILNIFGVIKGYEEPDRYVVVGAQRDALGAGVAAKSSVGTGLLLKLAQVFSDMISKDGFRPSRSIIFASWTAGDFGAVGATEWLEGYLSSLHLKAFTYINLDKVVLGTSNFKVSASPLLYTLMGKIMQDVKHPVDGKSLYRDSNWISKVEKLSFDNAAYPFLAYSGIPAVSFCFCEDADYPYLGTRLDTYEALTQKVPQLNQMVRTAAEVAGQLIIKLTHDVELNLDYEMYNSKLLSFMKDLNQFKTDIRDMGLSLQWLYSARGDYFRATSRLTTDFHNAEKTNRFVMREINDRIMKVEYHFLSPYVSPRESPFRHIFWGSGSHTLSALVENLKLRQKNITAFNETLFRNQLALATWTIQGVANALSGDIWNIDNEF
T17 sequence (Q62351 whole entry L383A): as the sequence (Q62351 whole entry S255A) above, with A255S, L383A counted along it
T13 sequence (Q62351 whole entry N253A): as the sequence (Q62351 whole entry S255A) above, with N253A, A255S counted along it
T9 sequence (Q62351 whole entry P324A): as the sequence (Q62351 whole entry S255A) above, with A255S, P324A counted along it
T3 sequence (Q62351 whole entry Q193A): as the sequence (Q62351 whole entry S255A) above, with Q193A, A255S counted along it
T4 sequence (Q62351 whole entry I378A): as the sequence (Q62351 whole entry S255A) above, with A255S, I378A counted along it
T25 sequence (Q62351 whole entry P227A): as the sequence (Q62351 whole entry S255A) above, with P227A, A255S counted along it
T2 sequence (Q62351 whole entry Q327A): as the sequence (Q62351 whole entry S255A) above, with A255S, Q327A counted along it
T26 sequence (Q62351 whole entry I198A): as the sequence (Q62351 whole entry S255A) above, with I198A, A255S counted along it
T19 sequence (Q62351 whole entry P332A): as the sequence (Q62351 whole entry S255A) above, with A255S, P332A counted along it
T23 sequence (Q62351 whole entry S225A): as the sequence (Q62351 whole entry S255A) above, with S225A, A255S counted along it
T8 sequence (Q62351 whole entry P325A): as the sequence (Q62351 whole entry S255A) above, with A255S, P325A counted along it
T21 sequence (Q62351 whole entry V194A): as the sequence (Q62351 whole entry S255A) above, with V194A, A255S counted along it
T15 sequence (Q62351 whole entry G330A): as the sequence (Q62351 whole entry S255A) above, with A255S, G330A counted along it
T24 sequence (Q62351 whole entry K226A): as the sequence (Q62351 whole entry S255A) above, with K226A, A255S counted along it
T16 sequence (Q62351 whole entry S197A): as the sequence (Q62351 whole entry S255A) above, with S197A, A255S counted along it
T22 sequence (Q62351 whole entry S231A): as the sequence (Q62351 whole entry S255A) above, with S231A, A255S counted along it
T7 sequence (Q62351 whole entry T228A): as the sequence (Q62351 whole entry S255A) above, with T228A, A255S counted along it
T12 sequence (Q62351 whole entry G199A): as the sequence (Q62351 whole entry S255A) above, with G199A, A255S counted along it
T14 sequence (Q62351 whole entry S328A): as the sequence (Q62351 whole entry S255A) above, with A255S, S328A counted along it
T6 sequence (Q62351 whole entry K380A): as the sequence (Q62351 whole entry S255A) above, with A255S, K380A counted along it
T11 sequence (Q62351 whole entry I279A): as the sequence (Q62351 whole entry S255A) above, with A255S, I279A counted along it
T29 sequence (Q62351 whole entry V230A): as the sequence (Q62351 whole entry S255A) above, with V230A, A255S counted along it
T10 sequence (Q62351 whole entry S329A): as the sequence (Q62351 whole entry S255A) above, with A255S, S329A counted along it
T27 sequence (Q62351 whole entry K191A): as the sequence (Q62351 whole entry S255A) above, with K191A, A255S counted along it
T5 sequence (Q62351 whole entry M202A): as the sequence (Q62351 whole entry S255A) above, with M202A, A255S counted along it
T20 sequence (Q62351 whole entry S196A): as the sequence (Q62351 whole entry S255A) above, with S196A, A255S counted along it
T18 sequence (Q62351 whole entry Q274A): as the sequence (Q62351 whole entry S255A) above, with A255S, Q274A counted along it
T28 sequence (Q62351 whole entry E229A): as the sequence (Q62351 whole entry S255A) above, with E229A, A255S counted along it

Binder	% double-positive cells vs WT [2]	% double-positive cells vs WT [4]	% double-positive cells vs WT [5]	% double-positive cells vs WT [6]	% double-positive cells vs WT [7]	% double-positive cells vs WT [8]	% double-positive cells vs WT [9]	% double-positive cells vs WT [10]	% double-positive cells vs WT [11]	% double-positive cells vs WT [12]	% double-positive cells vs WT [14]	% double-positive cells vs WT [15]	% double-positive cells vs WT [16]	% double-positive cells vs WT [17]	% double-positive cells vs WT [18]	% double-positive cells vs WT [19]	% double-positive cells vs WT [20]	% double-positive cells vs WT [22]	% double-positive cells vs WT [23]	% double-positive cells vs WT [24]	further results
8D3 antibody (anti-mouse TfR-1 control; 8D3-hFc formatted antibody) (antibody, V domains shown) VH: EVQLVESGGGLVQPGNSLTLSCVASGFTFSNYGMHWIRQAPKKGLEWIAMIYYDSSKMNYADTVKGRFTISRDNSKNTLYLEMNSLRSEDTAMYYCAVPTSHYVVDVWGQGVSVTVSS VL: DIQMTQSPASLSASLEEIVTITCQASQDIGNWLAWYQQKPGKSPQLLIYGATSLADGVPSRFSGSRSGTQFSLKISRVQVEDIGIYYCLQAYNTPWTFGGGTKLELK	124%	92%	81%	66%	89%	119%	39%	18%	74%	69%	141%	90%	100%	73%	87%	57%	74%	65%	64%	111%	% double-positive cells vs WT [1]: 56%; % double-positive cells vs WT [3]: 63%; % double-positive cells vs WT [13]: 87%; % double-positive cells vs WT [21]: 60%; % double-positive cells vs WT [25]: 63%; % double-positive cells vs WT [26]: 94%; % double-positive cells vs WT [27]: 91%; % double-positive cells vs WT [28]: 68%; % double-positive cells vs WT [29]: 81%
Clone C VNAR-hFc fusion (Fc fusion, not shown: a dimerising Fc or GST, bivalent VNAR-Fc; also called Clone C-hFc) ARVDQTPQTITKETGESLTINCVLRDSNCALSSTYWYRKKSGSTNEENISKGGRYVETVNSGSKSFSLRINDLTVEDSGTYRCNVVQYPSYNNYFWCDVYGDGTAVTVN	83%	142%	166%	193%	68%	148%	27%	212%	177%	72%	50%	307%	111%	328%	182%	257%	123%	283%	180%	157%	% double-positive cells vs WT [1]: 14%; % double-positive cells vs WT [3]: 152%; % double-positive cells vs WT [13]: 26%; % double-positive cells vs WT [21]: 184%; % double-positive cells vs WT [25]: 77%; % double-positive cells vs WT [26]: 239%; % double-positive cells vs WT [27]: 51%; % double-positive cells vs WT [28]: 81%; % double-positive cells vs WT [29]: 58%
Clone C variant 13 VNAR-hFc (Fc fusion, not shown: a dimerising Fc or GST, also called Clone C v13; Clone C var; 13) ARVDQTPQTITKETGESLTINCVLRDSNCALSSTYWYRKKSGSTNEENISKGGRYVETVNSGSKSFSLRINDLTVEDSGTYRCNVVQYPQQDNYFWCDVYGDGTAVTVN	85%	115%	103%	81%	65%	83%	25%	73%	85%	36%	22%	87%	56%	121%	84%	79%	47%	101%	73%	77%	% double-positive cells vs WT [25]: 47%; % double-positive cells vs WT [26]: 73%; % double-positive cells vs WT [28]: 43%; % double-positive cells vs WT [29]: 47%
Clone C variant 18 VNAR-hFc (Fc fusion, not shown: a dimerising Fc or GST, also called Clone C v18; Clone C var; 18) ARVDQTPQTITKETGESLTINCVLRDSNCALSSTYWYRKKSGSTNEENISKGGRYVETVNSGSKSFSLRINDLTVEDSGTYRCNVVQYPQYPNYFWCDVYGDGTAVTVN	119%	80%	153%	162%	45%	175%	39%	182%	206%	42%	20%	231%	66%	354%	229%	218%	104%	173%	163%	91%	% double-positive cells vs WT [1]: 23%; % double-positive cells vs WT [3]: 178%; % double-positive cells vs WT [13]: 10%; % double-positive cells vs WT [21]: 199%; % double-positive cells vs WT [25]: 20%; % double-positive cells vs WT [26]: 79%; % double-positive cells vs WT [27]: 25%; % double-positive cells vs WT [28]: 51%; % double-positive cells vs WT [29]: 59%
